Biological target: Zif268 finger 1 variant phage pool, CCTG selection round 5 finger 1 positions -1, 2, 3, 6 randomized (four NNS codons), pool (UniProt P08046)
Experiment: SELEX
Details: [none], phage display pool, no enrichment, 0.45 M NaCl washes, 10 uM ZnCl2, 5 mM MgCl2

## CTGAGCGTGGCCTGAGTGATCGATC / CACTCAGGCCACGCTCAG [CCTG duplex]
  activity (% phage retention): < 0.001

— patent publication US5789538
